# Source: patent US20170291959A1 (SORRENTO THERAPEUTICS, published 2017)
# B1: C38A2 (antibody, V domains shown)
# VH: QVQLVESGGGLVKPGGSLRLSCAASGFTFSDDYMSWIRQAPGKGLEWVASVSNGRPTTYYADSVRGRFTISRDNAKNSLYLQMNSLRAEDTAVYYCAREDWGGEFTDWGRGTLVTVSS
# VL: QAGLTQPPSASGTSGQRVTISCSGSSSNIGINFVYWYQHLPGTAPKLLIYKNNQRPSGVPDRFSGSKSGNSASLAISGLRSEDEADYYCAAWDDSLSGYVFGSGTKVTVL
# notes: tested as an antibody beside an IgG matched control in the ADCC assay
# B2: C38D8 (antibody, V domains shown)
# VH: QVQLVESGGGVVQPGGSLRLSCAASGFIVSTNYVHWVRQAPGKGLEWVSGIYSDPYTSYAYSDSVKGRFTISRDMSKNTVYLQMNRLRAEDTAVYYCARETNTGFSNSWYLDFWGQGTLVTVSS
# VL: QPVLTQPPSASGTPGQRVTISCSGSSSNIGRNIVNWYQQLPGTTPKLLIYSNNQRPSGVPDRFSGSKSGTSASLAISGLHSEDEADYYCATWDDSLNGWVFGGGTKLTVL
# notes: as for B1
# Molecular target: T1, CD38 on Ramos cells (human, UniProt P28907 1-300)
# T1 construct: whole, on cells; also called CD38 expressing cells; Ramos target cells
# Experiment: ADCC assay on Ramos cells (binding inferred from it)
# Protocol: The ability of anti-CD38 antibodies to bind to CD38 expressing cells and promote functional activity was determined using an antibody-dependent cell-mediated cytotoxicity (ADCC) assay. In this assay, Ramos cells, a Burkitt's lymphoma cell line, were added to wells at 5×10³ cells per well. Test antibodies (C38A2 (“38-A2”), C38D8 (“38-D8”) and C38D4 (“38-D4”) and control IgG) were then added at 1 microgram per ml and incubated with the Ramos cells for 20 minutes at 37° C. After washing, the effector cells were added at different concentrations resulting in three effector-to-target ratios. The effector cells were purified natural killer (NK) cells that had been incubated overnight in the presence of IL-2 (100 U/ml). The assay was allowed to proceed for at least 4 hours after which time cytotoxicity was evaluated using a Promega Cyto-glo kit.
row,Binder,binding result
1,B1,binds
2,B2,binds
